# Source: publication PMC3113324, “AKAP5 and AKAP12 Form Homo-oligomers” (Journal of Molecular Signaling, 2011)
# Where a chain is given by its changes, count along the chain named. In names and notes the source's numbering stands.
# B1: His-tagged human AKAP12 (natural protein, UniProt Q02952 1-1782, looked up)
# chain: MGAGSSTEQRSPEQPPEGSSTPAEPEPSGGGPSAEAAPDTTADPAIAASDPATKLLQKNGQLSTINGVAEQDELSLQEGDLNGQKGALNGQGALNSQEEEEVIVTEVGQRDSEDVSKRDSDKEMATKSAVVHDITDDGQEETPEIIEQIPSSESNLEELTQPTESQANDIGFKKVFKFVGFKFTVKKDKTEKPDTVQLLTVKKDEGEGAAGAGDHKDPSLGAGEAASKESEPKQSTEKPEETLKREQSHAEISPPAESGQAVEECKEEGEEKQEKEPSKSAESPTSPVTSETGSTFKKFFTQGWAGWRKKTSFRKPKEDEVEASEKKKEQEPEKVDTEEDGKAEVASEKLTASEQAHPQEPAESAHEPRLSAEYEKVELPSEEQVSGSQGPSEEKPAPLATEVFDEKIEVHQEEVVAEVHVSTVEERTEEQKTEVEETAGSVPAEELVEMDAEPQEAEPAKELVKLKETCVSGEDPTQGADLSPDEKVLSKPPEGVVSEVEMLSSQERMKVQGSPLKKLFTSTGLKKLSGKKQKGKRGGGDEESGEHTQVPADSPDSQEEQKGESSASSPEEPEEITCLEKGLAEVQQDGEAEEGATSDGEKKREGVTPWASFKKMVTPKKRVRRPSESDKEDELDKVKSATLSSTESTASEMQEEMKGSVEEPKPEEPKRKVDTSVSWEALICVGSSKKRARRGSSSDEEGGPKAMGGDHQKADEAGKDKETGTDGILAGSQEHDPGQGSSSPEQAGSPTEGEGVSTWESFKRLVTPRKKSKSKLEEKSEDSIAGSGVEHSTPDTEPGKEESWVSIKKFIPGRRKKRPDGKQEQAPVEDAGPTGANEDDSDVPAVVPLSEYDAVEREKMEAQQAQKSAEQPEQKAATEVSKELSESQVHMMAAAVADGTRAATIIEERSPSWISASVTEPLEQVEAEAALLTEEVLEREVIAEEEPPTVTEPLPENREARGDTVVSEAELTPEAVTAAETAGPLGAEEGTEASAAEETTEMVSAVSQLTDSPDTTEEATPVQEVEGGVPDIEEQERRTQEVLQAVAEKVKEESQLPGTGGPEDVLQPVQRAEAERPEEQAEASGLKKETDVVLKVDAQEAKTEPFTQGKVVGQTTPESFEKAPQVTESIESSELVTTCQAETLAGVKSQEMVMEQAIPPDSVETPTDSETDGSTPVADFDAPGTTQKDEIVEIHEENEVASGTQSGGTEAEAVPAQKERPPAPSSFVFQEETKEQSKMEDTLEHTDKEVSVETVSILSKTEGTQEADQYADEKTKDVPFFEGLEGSIDTGITVSREKVTEVALKGEGTEEAECKKDDALELQSHAKSPPSPVEREMVVQVEREKTEAEPTHVNEEKLEHETAVTVSEEVSKQLLQTVNVPIIDGAKEVSSLEGSPPPCLGQEEAVCTKIQVQSSEASFTLTAAAEEEKVLGETANILETGETLEPAGAHLVLEEKSSEKNEDFAAHPGEDAVPTGPDCQAKSTPVIVSATTKKGLSSDLEGEKTTSLKWKSDEVDEQVACQEVKVSVAIEDLEPENGILELETKSSKLVQNIIQTAVDQFVRTEETATEMLTSELQTQAHVIKADSQDAGQETEKEGEEPQASAQDETPITSAKEESESTAVGQAHSDISKDMSEASEKTMTVEVEGSTVNDQQLEEVVLPSEEEGGGAGTKSVPEDDGHALLAERIEKSLVEPKEDEKGDDVDDPENQNSALADTDASGGLTKESPDTNGPKQKEKEDAQEVELQEGKVHSESDKAITPQAQEELQKQERESAKSELTES
# notes: A-kinase-anchoring protein 12 (AKAP12, gravin, SSECKS), human, full length (1-1782), calculated MW 191.5 kDa; also called gravin; SSECKS; source: E. coli, purified by gel filtration chromatography (Superose 12)
# B2: HA-AKAP12M3 (S627A, S696-698A, S772A) (natural protein, human, UniProt Q02952 1-1782, looked up)
# chain: B1 chain with S627A, S696A, S697A, S698A, S772A
# notes: AKAP12, human, with alanine substitution of the protein kinase A phosphorylation sites; source: HEK293, transfected (pcDNA3.1), in whole-cell lysate
# B3: HA-tagged full-length AKAP12 (1-1782) (natural protein, human, UniProt Q02952 1-1782, looked up)
# chain: B1 chain
# notes: AKAP12, human, full length (1-1782); also called HA-AKAP12; HA-tagged AKAP12; source: HEK293, transfected (pcDNA3.1), in whole-cell lysate
# B4: full-length endogenous AKAP12 (natural protein, human (endogenous in HEK293), UniProt Q02952 1-1782, looked up)
# chain: B1 chain
# notes: AKAP12, endogenous in HEK293 cells, detected with anti-AKAP12 antibody; also called native AKAP12; endogenously expressed AKAP12; source: endogenous, HEK293 whole-cell lysate
# B5: HA-AKAP12 (1-938) (domain or fragment, human, UniProt Q02952 1-938, looked up)
# chain: MGAGSSTEQRSPEQPPEGSSTPAEPEPSGGGPSAEAAPDTTADPAIAASDPATKLLQKNGQLSTINGVAEQDELSLQEGDLNGQKGALNGQGALNSQEEEEVIVTEVGQRDSEDVSKRDSDKEMATKSAVVHDITDDGQEETPEIIEQIPSSESNLEELTQPTESQANDIGFKKVFKFVGFKFTVKKDKTEKPDTVQLLTVKKDEGEGAAGAGDHKDPSLGAGEAASKESEPKQSTEKPEETLKREQSHAEISPPAESGQAVEECKEEGEEKQEKEPSKSAESPTSPVTSETGSTFKKFFTQGWAGWRKKTSFRKPKEDEVEASEKKKEQEPEKVDTEEDGKAEVASEKLTASEQAHPQEPAESAHEPRLSAEYEKVELPSEEQVSGSQGPSEEKPAPLATEVFDEKIEVHQEEVVAEVHVSTVEERTEEQKTEVEETAGSVPAEELVEMDAEPQEAEPAKELVKLKETCVSGEDPTQGADLSPDEKVLSKPPEGVVSEVEMLSSQERMKVQGSPLKKLFTSTGLKKLSGKKQKGKRGGGDEESGEHTQVPADSPDSQEEQKGESSASSPEEPEEITCLEKGLAEVQQDGEAEEGATSDGEKKREGVTPWASFKKMVTPKKRVRRPSESDKEDELDKVKSATLSSTESTASEMQEEMKGSVEEPKPEEPKRKVDTSVSWEALICVGSSKKRARRGSSSDEEGGPKAMGGDHQKADEAGKDKETGTDGILAGSQEHDPGQGSSSPEQAGSPTEGEGVSTWESFKRLVTPRKKSKSKLEEKSEDSIAGSGVEHSTPDTEPGKEESWVSIKKFIPGRRKKRPDGKQEQAPVEDAGPTGANEDDSDVPAVVPLSEYDAVEREKMEAQQAQKSAEQPEQKAATEVSKELSESQVHMMAAAVADGTRAATIIEERSPSWISASVTEPLEQVEAEAALLTEEVLE
# notes: AKAP12, human, N-terminal fragment, residues 1-938; also called AKAP12 N-terminal (1-938) fragment; source: HEK293, transfected (pcDNA3.1), in whole-cell lysate
# B6: HA-AKAP12 (840-1782) (domain or fragment, human, UniProt Q02952 840-1782, looked up)
# chain: DSDVPAVVPLSEYDAVEREKMEAQQAQKSAEQPEQKAATEVSKELSESQVHMMAAAVADGTRAATIIEERSPSWISASVTEPLEQVEAEAALLTEEVLEREVIAEEEPPTVTEPLPENREARGDTVVSEAELTPEAVTAAETAGPLGAEEGTEASAAEETTEMVSAVSQLTDSPDTTEEATPVQEVEGGVPDIEEQERRTQEVLQAVAEKVKEESQLPGTGGPEDVLQPVQRAEAERPEEQAEASGLKKETDVVLKVDAQEAKTEPFTQGKVVGQTTPESFEKAPQVTESIESSELVTTCQAETLAGVKSQEMVMEQAIPPDSVETPTDSETDGSTPVADFDAPGTTQKDEIVEIHEENEVASGTQSGGTEAEAVPAQKERPPAPSSFVFQEETKEQSKMEDTLEHTDKEVSVETVSILSKTEGTQEADQYADEKTKDVPFFEGLEGSIDTGITVSREKVTEVALKGEGTEEAECKKDDALELQSHAKSPPSPVEREMVVQVEREKTEAEPTHVNEEKLEHETAVTVSEEVSKQLLQTVNVPIIDGAKEVSSLEGSPPPCLGQEEAVCTKIQVQSSEASFTLTAAAEEEKVLGETANILETGETLEPAGAHLVLEEKSSEKNEDFAAHPGEDAVPTGPDCQAKSTPVIVSATTKKGLSSDLEGEKTTSLKWKSDEVDEQVACQEVKVSVAIEDLEPENGILELETKSSKLVQNIIQTAVDQFVRTEETATEMLTSELQTQAHVIKADSQDAGQETEKEGEEPQASAQDETPITSAKEESESTAVGQAHSDISKDMSEASEKTMTVEVEGSTVNDQQLEEVVLPSEEEGGGAGTKSVPEDDGHALLAERIEKSLVEPKEDEKGDDVDDPENQNSALADTDASGGLTKESPDTNGPKQKEKEDAQEVELQEGKVHSESDKAITPQAQEELQKQERESAKSELTES
# notes: AKAP12, human, C-terminal fragment, residues 840-1782; also called AKAP12 C-terminal (840-1782) fragment; source: HEK293, transfected (pcDNA3.1), in whole-cell lysate
# Experiments:
# [1] = molecular target: the molecule itself; test: SDS-PAGE (SDS-resistant oligomers); purified His-tagged proteins resolved on SDS-PAGE without urea; Coomassie staining and immunoblotting
# [2] = molecular target: the molecule itself; test: SDS-PAGE (SDS-resistant oligomers); whole-cell lysates of HEK293 cells on SDS-PAGE without urea; immunoblot with anti-HA or anti-AKAP12; cells also treated with isoproterenol (10 uM, 0, 5, 30 min), KT5720, PD98059 or Rolipram (45 min)
protein,measurement,setting,value
B1,stoichiometry N,[1],2
B2,stoichiometry N,[2],2
B3,stoichiometry N,[2],2
B4,stoichiometry N,[2],2
B5,stoichiometry N,[2],2
B6,stoichiometry N,[2],2
